Measurements taken from patent US20260042834A1 (HBM ALPHA THERAPEUTICS, published 2026).
Where two headings read alike, the source gives them in different places.

T1: corticotropin-releasing hormone (CRH) peptide (human and mouse (same sequence), not fully specified)
T1 peptide: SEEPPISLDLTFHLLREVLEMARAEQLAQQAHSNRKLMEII


Experiments:
[1] = molecular target: T1, corticotropin-releasing hormone (CRH) …; assay: cell-based or functional assay
[2] = molecular target: T1, corticotropin-releasing hormone (CRH) …; assay: cell-based or functional assay

Binder | hCRHR1 Luciferase Reporter Assay IC50 [1] [nM] | hCRHR1 Luciferase Reporter Assay IC50 [2] [nM] | also measured
PR302341-1 (antibody, human IgG1, kappa, V domains shown) VH: EVQLQQSGPELVKPGASVKMSCKASGYTFTDYFMKWVKQSHGESLEWIGVINPNNGDIFYNQKFKGKATLTVDKSSSTAFMQLNSLTSEDSAVYSCARGTDRALFAYWGQGTLVAVSA VL: DVVMTQSPLSLPVTLGQPASISCRSGQSIVHSDGNTYLEWFQQRPGQSPRRLIYKVSNRFSGVPDRFSGSGSGTDFTLKISRVEAEDVGVYYCFQGSHIPWTFGGGTKVEIKR | 0.397 |  | 
PR302341-3 (antibody, human IgG1, kappa, V domains shown) VH: EVQLQQSGPELVKPGASVKMSCKASGYTFTDYFMKWVKQSHGESLEWIGVINPNNGDIFYNQKFKGKATLTVDKSSSTAFMQLNSLTSEDSAVYSCARGTDRALFAYWGQGTLVAVSA VL: DIVMTQTPLSSPVTLGQPASISCRSGQSIVHSDGNTYLEWLQQRPGQPPRLLIYKVSNRFSGVPDRFSGSGAGTDFTLKISRVEAEDVGVYYCFQGSHIPWTFGGGTKVEIKR | 0.128 |  | 
PR302341-8 (antibody, human IgG1, kappa, V domains shown) VH: QVQLVQSGAEVKKPGASVKVSCKASGYTFTDYFMKWVRQAPGQGLEWMGVINPNNGDIFYNQKFKGRVTMTVDKSTSTAYMELSSLRSEDTAVYYCARGTDRALFAYWGQGTLVTVSS VL: DVVMTQSPLSLPVTLGQPASISCRSGQSIVHSDGNTYLEWYQQRPGQSPRLLIYKVSNRFSGVPDRFSGSGSGTDFTLKISRVEAEDLGVYYCFQGSHIPWTFGGGTKVEIKR | 0.165 |  | mCrhr1 Luciferase Reporter Assay IC50 [1]: 0.357 nM
PR302341-4 (antibody, human IgG1, kappa, V domains shown) VH: EVQLQQSGPELVKPGASVKMSCKASGYTFTDYFMKWVKQSHGESLEWIGVINPNNGDIFYNQKFKGKATLTVDKSSSTAFMQLNSLTSEDSAVYSCARGTDRALFAYWGQGTLVAVSA VL: DVVMTQTPLSSPVTLGQPASISCRSGQSIVHSDGNTYLEWYQQRPGQPPRLLIYKVSNRFSGVPDRFSGSGAGTDFTLKISRVEAEDLGVYYCFQGSHIPWTFGGGTKVEIKR | 0.107 |  | 
PR302341-12 (antibody, human IgG1, kappa, V domains shown) VH: QVQLVQSGAEVKKPGASVKVSCKASGYTFTDYFMKWVRQAPGQGLEWMGVINPNNGDIFYNQKFKGRVTMTVDKSTSTAYMELSSLRSEDTAVYYCARGTDRALFAYWGQGTLVTVSS VL: DVVMTQTPLSLSVTPGQPASISCRSGQSIVHSDGNTYLEWYLQKPGQSPQLLIYKVSNRFSGVPDRFSGSGSGTDFTLKISRVEAEDLGVYYCFQGSHIPWTFGGGTKVEIKR | 0.25 |  | 
PR302341-11 (antibody, human IgG1, kappa, V domains shown) VH: QVQLVQSGAEVKKPGASVKVSCKASGYTFTDYFMKWVRQAPGQGLEWMGVINPNNGDIFYNQKFKGRVTMTVDKSTSTAYMELSSLRSEDTAVYYCARGTDRALFAYWGQGTLVTVSS VL: DIVMTQTPLSLSVTPGQPASISCRSGQSIVHSDGNTYLEWYLQKPGQSPQLLIYKVSNRFSGVPDRFSGSGSGTDFTLKISRVEAEDVGVYYCFQGSHIPWTFGGGTKVEIKR | 0.467 |  | 
PR302341-9 (antibody, human IgG1, kappa, V domains shown) VH: QVQLVQSGAEVKKPGASVKVSCKASGYTFTDYFMKWVRQAPGQGLEWMGVINPNNGDIFYNQKFKGRVTMTVDKSTSTAYMELSSLRSEDTAVYYCARGTDRALFAYWGQGTLVTVSS VL: DIVMTQTPLSSPVTLGQPASISCRSGQSIVHSDGNTYLEWLQQRPGQPPRLLIYKVSNRFSGVPDRFSGSGAGTDFTLKISRVEAEDVGVYYCFQGSHIPWTFGGGTKVEIKR | 0.234 |  | 
PR302341-2 (antibody, human IgG1, kappa, V domains shown) VH: EVQLQQSGPELVKPGASVKMSCKASGYTFTDYFMKWVKQSHGESLEWIGVINPNNGDIFYNQKFKGKATLTVDKSSSTAFMQLNSLTSEDSAVYSCARGTDRALFAYWGQGTLVAVSA VL: DVVMTQSPLSLPVTLGQPASISCRSGQSIVHSDGNTYLEWYQQRPGQSPRLLIYKVSNRFSGVPDRFSGSGSGTDFTLKISRVEAEDLGVYYCFQGSHIPWTFGGGTKVEIKR | 0.168 |  | 
PR302341-5 (antibody, human IgG1, kappa, V domains shown) VH: EVQLQQSGPELVKPGASVKMSCKASGYTFTDYFMKWVKQSHGESLEWIGVINPNNGDIFYNQKFKGKATLTVDKSSSTAFMQLNSLTSEDSAVYSCARGTDRALFAYWGQGTLVAVSA VL: DIVMTQTPLSLSVTPGQPASISCRSGQSIVHSDGNTYLEWYLQKPGQSPQLLIYKVSNRFSGVPDRFSGSGSGTDFTLKISRVEAEDVGVYYCFQGSHIPWTFGGGTKVEIKR | 0.73 |  | 
PR302341-6 (antibody, human IgG1, kappa, V domains shown) VH: EVQLQQSGPELVKPGASVKMSCKASGYTFTDYFMKWVKQSHGESLEWIGVINPNNGDIFYNQKFKGKATLTVDKSSSTAFMQLNSLTSEDSAVYSCARGTDRALFAYWGQGTLVAVSA VL: DVVMTQTPLSLSVTPGQPASISCRSGQSIVHSDGNTYLEWYLQKPGQSPQLLIYKVSNRFSGVPDRFSGSGSGTDFTLKISRVEAEDLGVYYCFQGSHIPWTFGGGTKVEIKR | 0.363 |  | 
PR302341-7 (antibody, human IgG1, kappa, V domains shown) VH: QVQLVQSGAEVKKPGASVKVSCKASGYTFTDYFMKWVRQAPGQGLEWMGVINPNNGDIFYNQKFKGRVTMTVDKSTSTAYMELSSLRSEDTAVYYCARGTDRALFAYWGQGTLVTVSS VL: DVVMTQSPLSLPVTLGQPASISCRSGQSIVHSDGNTYLEWFQQRPGQSPRRLIYKVSNRFSGVPDRFSGSGSGTDFTLKISRVEAEDVGVYYCFQGSHIPWTFGGGTKVEIKR | 0.23 |  | 
PR302341-13 (antibody, human IgG1, kappa, V domains shown) VH: QVQLVQSGAEVKKPGASVKVSCKASGYTFTDYFMKWVRQAPGQGLEWMGVINPNNGDIFYNQKFKGRVTMTRDTSTSTVYMELSSLRSEDTAVYYCARGTDRALFAYWGQGTLVTVSS VL: DVLMTQTPLSLPVSLGDQASISCRSGQSIVHSDGNTYLEWYLQRPGQSPRLLIYKVSNRFSGVPDRFSGSGSGTDFTLKISRVGAEDLGIYYCFQGSHIPWTFGGGTKLEVKR | 0.124 |  | 

Now from value to binder, other results behind:

hCRHR1 Luciferase Reporter Assay IC50 [1] [nM] | hCRHR1 Luciferase Reporter Assay IC50 [2] [nM] | Binder | also measured
 | 1.77 | PR302341-36 (antibody, human IgG1, kappa, V domains shown) VH: QVQLVQSGAEVKKPGASVKVSCKASGYTFTDYFMKWVRQAPGQGLEWMGVINPNSGDIFYNQKFKGRVTMTVDKSISTAYMELSRLRSDDTAVYYCARGTDRALFAYWGQGTLVTVSS VL: DVVMTQSPLSLPVTLGQPASISCRSGQSIVHSEGNTYLEWYQQRPGQSPRLLIYKVSNRFSGVPDRFSGSGSGTDFTLKISRVEAEDLGVYYCFQGSHIPWTFGGGTKVEIKR | 
 | 1.04 | PR302341-39 (antibody, human IgG1, kappa, V domains shown) VH: QVQLVQSGAEVKKPGASVKVSCKASGYTFTDYFMKWVRQAPGQGLEWMGVINPNNADIFYNQKFKGRVTMTVDKSISTAYMELSRLRSDDTAVYYCARGTDRALFAYWGQGTLVTVSS VL: DVVMTQSPLSLPVTLGQPASISCRSGQSIVHSSGNTYLEWYQQRPGQSPRLLIYKVSNRFSGVPDRFSGSGSGTDFTLKISRVEAEDLGVYYCFQGSHIPWTFGGGTKVEIKR | 
 | 1.82 | PR302341-40 (antibody, human IgG1, kappa, V domains shown) VH: QVQLVQSGAEVKKPGASVKVSCKASGYTFTDYFMKWVRQAPGQGLEWMGVINPNSGDIFYNQKFKGRVTMTVDKSISTAYMELSRLRSDDTAVYYCARGTDRALFAYWGQGTLVTVSS VL: DVVMTQSPLSLPVTLGQPASISCRSGQSIVHSSGNTYLEWYQQRPGQSPRLLIYKVSNRFSGVPDRFSGSGSGTDFTLKISRVEAEDLGVYYCFQGSHIPWTFGGGTKVEIKR | 
 | 0.471 | PR302341-41 (antibody, human IgG1, kappa, V domains shown) VH: QVQLVQSGAEVKKPGASVKVSCKASGYTFTDYFMKWVRQAPGQGLEWMGVINPNSGDIFYNQKFKGRVTMTVDKSISTAYMELSRLRSDDTAVYYCARGTDRALFAYWGQGTLVTVSS VL: DVVMTQSPLSLPVTLGQPASISCRSGQSIVHSDGNTYLEWYQQRPGQSPRLLIYKVSNRFSGVPDRFSGSGSGTDFTLKISRVEAEDLGVYYCFQGSHIPWTFGGGTKVEIKR | 
 | 0.792 | PR302341-37 (antibody, human IgG1, kappa, V domains shown) VH: QVQLVQSGAEVKKPGASVKVSCKASGYTFTDYFMKWVRQAPGQGLEWMGVINPNSGDIFYNQKFKGRVTMTVDKSISTAYMELSRLRSDDTAVYYCARGTDRALFAYWGQGTLVTVSS VL: DVVMTQSPLSLPVTLGQPASISCRSGQSIVHSDANTYLEWYQQRPGQSPRLLIYKVSNRFSGVPDRFSGSGSGTDFTLKISRVEAEDLGVYYCFQGSHIPWTFGGGTKVEIKR | mCrhr1 Luciferase Reporter Assay IC50 [2]: 1.29 nM
 | 1.75 | PR302341-35 (antibody, human IgG1, kappa, V domains shown) VH: QVQLVQSGAEVKKPGASVKVSCKASGYTFTDYFMKWVRQAPGQGLEWMGVINPNNADIFYNQKFKGRVTMTVDKSISTAYMELSRLRSDDTAVYYCARGTDRALFAYWGQGTLVTVSS VL: DVVMTQSPLSLPVTLGQPASISCRSGQSIVHSEGNTYLEWYQQRPGQSPRLLIYKVSNRFSGVPDRFSGSGSGTDFTLKISRVEAEDLGVYYCFQGSHIPWTFGGGTKVEIKR | 
 | 0.616 | PR302341-34 (antibody, human IgG1, kappa, V domains shown) VH: QVQLVQSGAEVKKPGASVKVSCKASGYTFTDYFMKWVRQAPGQGLEWMGVINPNQGDIFYNQKFKGRVTMTVDKSISTAYMELSRLRSDDTAVYYCARGTDRALFAYWGQGTLVTVSS VL: DVVMTQSPLSLPVTLGQPASISCRSGQSIVHSDANTYLEWYQQRPGQSPRLLIYKVSNRFSGVPDRFSGSGSGTDFTLKISRVEAEDLGVYYCFQGSHIPWTFGGGTKVEIKR | mCrhr1 Luciferase Reporter Assay IC50 [2]: 2.19 nM
 | 1.78 | PR302341-38 (antibody, human IgG1, kappa, V domains shown) VH: QVQLVQSGAEVKKPGASVKVSCKASGYTFTDYFMKWVRQAPGQGLEWMGVINPNQGDIFYNQKFKGRVTMTVDKSISTAYMELSRLRSDDTAVYYCARGTDRALFAYWGQGTLVTVSS VL: DVVMTQSPLSLPVTLGQPASISCRSGQSIVHSSGNTYLEWYQQRPGQSPRLLIYKVSNRFSGVPDRFSGSGSGTDFTLKISRVEAEDLGVYYCFQGSHIPWTFGGGTKVEIKR | 
 | 1.98 | PR302341-42 (antibody, human IgG1, kappa, V domains shown) VH: QVQLVQSGAEVKKPGASVKVSCKASGYTFTDYFMKWVRQAPGQGLEWMGVINPNNGDIFYNQKFKGRVTMTVDKSISTAYMELSRLRSDDTAVYYCARGTDRALFAYWGQGTLVTVSS VL: DVVMTQSPLSLPVTLGQPASISCRSGQSIVHSSGNTYLEWYQQRPGQSPRLLIYKVSNRFSGVPDRFSGSGSGTDFTLKISRVEAEDLGVYYCFQGSHIPWTFGGGTKVEIKR | 
